IC50 data for five molecules are collected here from US6703362 (dated 2004).

Values joined by “and” are separate entries in the source; they are usually repeats but may differ in a detail not shown here. Identical values can stand only once. Ends that are not written are not given here. * marks the point of attachment. Dansyl = CN(C)c1cccc2c(S(=O)(=O)*)cccc12

The target in assay [1] is C2BBe1 fixed cells (GST-P31 competition). The assay is described as follows: competition ELISA on fixed cells; vs GST-P31. A general note: In an ELISA, binding on a coated surface is turned into a signal by an enzyme label.
In assay [2] the target is C2BBe1 fixed cells. The assay is described as follows: competition ELISA on fixed cells; vs GST-PAX2.
Assay [3] concerns the target C2BBe1 fixed cells. Kind of assay: competition ELISA on fixed cells; vs GST-HAX42.
The target of assay [4] is C2BBe1 fixed cells. The assay is described as follows: competition ELISA on fixed cells; vs GST-P31.

The term IC50 denotes the concentration that inhibits the measured activity by half. A lower IC50 goes with higher potency. On to K(Dansyl)SARDSGPAEDGSRAVRLNGVENANTRKSSRSNPRGRRHPGG-NH2 [z024(P31)], for which the IC50 in assay [1] turned out to be 940 nM.
As to K(Dansyl)STPPSREAYSRPYSVDSDSDTNAKHSSHNRRLRTRSRPNG-NH2 [ELAN018(PAX2)], the IC50 with C2BBe1 fixed cells [2] was 600 nM and 1000 nM; with C2BBe1 fixed cells [3], 230 nM.
For the molecule K(Dansyl)SARDSGPAEDGSRAVRLNGVENANTRKSSRSNPRGRRHPGG-NH2 [ELAN024(P31)], the IC50 with C2BBe1 fixed cells [4] was 500 nM.
Regarding K(Dansyl)SDHALGTNLRSDNAKEPGDYNCCGNGNSTGRKVFNRRRPSAIPT-NH2 (cysteine pairing not given here) [Z21(HAX42)], the values for the IC50 with C2BBe1 fixed cells [4] and with C2BBe1 fixed cells [2] were 1700 nM and 700 nM, respectively.
In the assay with C2BBe1 fixed cells [3], K(Dansyl)SDHALGTNLRSDNAKEPGDYNCCGNGNSTGRKVFNRRRPSAIPT-NH2 (cysteine pairing not given here) [ELAN021(HAX42)] gave an IC50 of 5500 nM.
